By Kd is commonly meant the concentration at which binding is half-saturated.

The text below walks through data of US20230256076A1 (SICHUAN CLOVER BIOPHARMACEUTICALS, published 2023).

This assay addresses T1, exemplary recombinant polypeptide trimer: RSV F protein peptide (residues 1 to 520, RSV A2 strain) fused to … (respiratory syncytial virus A2 strain; …, UniProt P02452 1156-1464).
T1 construct: range 1-520;domain: C-propeptide of α1 collagen; Furin processing (F2/F1, loss of pep27) is not described for the tested protein; also called RSV F-Trimer; exemplary fusion peptide comprising an RSV F protein peptide
Put plainly: BLI (ForteBio Octet QKe); palivizumab 5 µg/mL on Protein A sensors, 2-fold dilutions of fusion peptide from 20 µg/mL, 1:1 model. (Biolayer interferometry detects binding as a change in optical thickness at a sensor tip.)

T1 sequence (P02452 1156-1464): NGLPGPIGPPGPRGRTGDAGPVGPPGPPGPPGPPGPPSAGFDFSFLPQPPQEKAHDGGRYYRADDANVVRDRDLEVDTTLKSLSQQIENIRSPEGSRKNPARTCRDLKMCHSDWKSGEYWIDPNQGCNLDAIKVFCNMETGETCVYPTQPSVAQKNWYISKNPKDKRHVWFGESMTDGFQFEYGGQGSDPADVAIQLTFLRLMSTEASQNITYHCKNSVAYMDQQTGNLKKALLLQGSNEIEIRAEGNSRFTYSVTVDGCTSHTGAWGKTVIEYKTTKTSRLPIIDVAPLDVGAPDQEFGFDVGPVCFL

B1: palivizumab (antibody, V domains shown)
VH: QVTLRESGPALVKPTQTLTLTCTFSGFSLSTSGMSVGWIRQPPGKALEWLADIWWDDKKDYNPSLKSRLTISKDTSKNQVVLKVTNMDPADTATYYCARSMITNWYFDVWGAGTTVTVSS
VL: DIQMTQSPSTLSASVGDRVTITCKCQLSVGYMHWYQQKPGKAPKLLIYDTSKLASGVPSRFSGSGSGTEFTLTISSLQPDDFATYYCFQGSGYPFTFGGGTKLEIK
With B1, the Kd was < 1 pM.
